Results published in patent US20050118229A1, “Implantable drug delivery device for sustained release of therapeutic agent” (iMEDD, Inc., priority 2003, published 2005).

What was measured:
[1] = Hydration of lysozyme particles through planar microporous membrane (dual sub-chamber device of FIG. 1); type: physicochemical
Text: The data presented in FIG. 3 is illustrative of zero-order hydration of the surrogate molecule lysozyme using the planar version of the microporous membrane shown in FIG. 1. In this experiment, three identical acrylic chambers were used, each chamber including two subchambers separated by a planar microporous membrane. The microporous membrane was a Whatman 1PS Phase Separator having a diameter of […] (area=113 mm^2).
The lower portion of the chamber (i.e., the lower sub-chamber) was filled with 2.7 milliliters of the water-immiscible solvent, perfluorodecalin. Suspended in this solvent were 20 mg of solid lysozyme particles having an average particle size of 90 micrometers. The range of particle sizes was 75 to 105 micrometers. […] The upper portion of the chamber (i.e., the upper sub-chamber) contained 0.3 milliliters of phosphate buffered saline solution. A stirring bar was placed in the lower sub-chamber of each device to agitate the solvent at ambient temperature during the fifty-two day test period. After thirty-seven days, stirring was stopped to determine whether or not agitation had any effect on the hydration rate. The buffer solution in the upper sub-chamber of each device was removed each day and replaced with a fresh supply of solution. The lysozyme content of the upper sub-chamber samples was analyzed periodically to determine the quantity of lysozyme material that had dissolved in a one-day time period. The daily mass of lysozyme that was present in the upper sub-chamber was added to the sum of the previous days, thus the data in FIG. 3 represents the total mass of hydrated lysozyme.
The effect of longer release periods is substantially equivalent to determining the release rate with decreasing amounts of lysozyme present in the device enclosure. To determine release variations over longer periods of time, additional planar-membrane, dual-chamber experiments were conducted using different initial amounts of lysozyme loaded, i.e., suspended, in the perfluorodecalin used to fill the lower sub-chamber. […] These average hydration rates are plotted in FIG. 5 as a function of the amount of mass loaded (100%=20 mg).

[2] = Hydration of lysozyme particles from cylindrical capsule-like microporous membrane packet (FIG. 2); type: physicochemical
Description: FIG. 6 provides hydration results for a device utilizing the three-dimensional capsule-like embodiment of the microporous membrane (see FIG. 2). For this experiment, a section of Whatman 1PS Phase Separator membrane was formed into a cylinder and sealed lengthwise and at both ends. The resulting cylinder was 10 mm in length and 4 mm in diameter (125 mm^2 membrane area). The cylinder was filled with approximately 1.4 mg of solid lysozyme having an average particle size of 90 micrometers combined with approximately 125 μl of the water-immiscible solvent perfluorodecalin,
The particle-filled cylinder described above was placed in a well containing 1.5 milliliters of phosphate buffered saline. A series of 70 μl samples were removed from the well at various time intervals. These samples were analyzed, and the results in FIG. 6 are the summation of mass hydrated as a function of time. Approximately 2.6 μg of lysozyme per day (i.e., 0.021 μg/mm^2) was hydrated after a nine-day delay. This observed rate is a factor of four less than the hydration rate observed in the previously discussed planar membrane experiments; however, because the entire membrane area was not active for the cylinder-shaped membrane, the release per unit area data is in reasonable agreement bwtween the two experiments. Thus, the data shown in FIGS. 4-6 provide a clear indication that the devices shown in FIGS. 1 and 2 are capable of providing the long-term zero-order release desired for an implantable drug-delivery device.

## lysozyme
[1]; 2 mg loaded (10% of 20 mg)
  hydration rate relative to its original value: 83%
[1]; 2 mg suspended lysozyme, planar membrane
  hydration rate: 7.7 micrograms/day
[1]; 5 mg suspended lysozyme, planar membrane
  hydration rate: 8.9 micrograms/day
[1]; 20 mg loaded, over the fifty-two day testing period
  lysozyme mass hydrated: 2%
[1]; 20 mg lysozyme loaded, planar membrane
  initial delay before hydration: eight to fourteen
[1]; 20 mg lysozyme loaded, planar membrane area 113 mm^2
  average hydration rate per membrane area: 0.082 ug/day/mm^2
[1]; 20 mg solid lysozyme particles loaded in perfluorodecalin, planar Whatman 1PS membrane, PBS, ambient temperature, 52 day test
  average hydration rate: 9.3 micrograms per day
[1]; during the time the mass of lysozyme decreases by 80%
  decrease of hydration rate: 4%
[2]; approx. 1.4 mg lysozyme in approx. 125 μl perfluorodecalin, cylinder 125 mm^2 Whatman 1PS, 1.5 ml PBS
  lysozyme hydrated per day: Approximately 2.6 μg per day
[2]; cylinder versus planar membrane experiments
  factor by which rate is less than the planar membrane hydration rate: four
[2]; cylinder-shaped membrane
  delay before hydration: nine
[2]; cylinder-shaped membrane, 125 mm^2 membrane area
  lysozyme hydrated per membrane area: ~0.021 μg/mm^2
